Source: article PMC8160739, “Mycobacterium tuberculosis Binds Human Serum Amyloid A, and the Interaction Modulates the Colonization of Human Macrophages and the Transcriptional Response of the Pathogen” (Cells, 2021)

T1: recombinant Mycobacterium tuberculosis rTB18.6 (Mycobacterium tuberculosis H37Rv, UniProt P9WFN1 1-176)
T1 construct: also called pHis-tb18.6 product
T1 sequence: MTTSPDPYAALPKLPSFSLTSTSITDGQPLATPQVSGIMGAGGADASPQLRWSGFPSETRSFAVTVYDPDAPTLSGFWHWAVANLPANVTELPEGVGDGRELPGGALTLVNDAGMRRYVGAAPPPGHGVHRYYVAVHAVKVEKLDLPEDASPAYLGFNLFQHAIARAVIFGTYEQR

T2: recombinant Mycobacterium tuberculosis rABC (Mycobacterium tuberculosis H37Rv, UniProt P9WQK3 1-558)
T2 construct: also called rABC transporter; pHis-abc product
T2 sequence: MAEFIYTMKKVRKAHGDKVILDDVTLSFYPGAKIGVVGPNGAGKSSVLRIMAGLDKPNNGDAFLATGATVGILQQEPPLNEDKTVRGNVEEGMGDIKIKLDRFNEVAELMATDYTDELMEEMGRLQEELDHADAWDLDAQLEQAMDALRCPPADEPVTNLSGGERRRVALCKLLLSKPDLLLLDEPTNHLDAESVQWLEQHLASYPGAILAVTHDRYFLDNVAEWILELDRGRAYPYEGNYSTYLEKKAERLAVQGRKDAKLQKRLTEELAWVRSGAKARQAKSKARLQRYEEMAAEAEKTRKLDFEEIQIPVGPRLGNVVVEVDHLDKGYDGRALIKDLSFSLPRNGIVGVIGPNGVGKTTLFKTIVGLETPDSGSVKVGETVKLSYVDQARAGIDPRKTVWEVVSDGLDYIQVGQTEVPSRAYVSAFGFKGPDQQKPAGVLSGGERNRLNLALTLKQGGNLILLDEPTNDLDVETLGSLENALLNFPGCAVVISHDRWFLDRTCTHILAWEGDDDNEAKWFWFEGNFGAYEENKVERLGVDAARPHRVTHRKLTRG

B1: biotin-labeled recombinant human SAA1 (natural protein, UniProt P0DJI8 19-122, looked up)
chain: RSFFSFLGEAFDGARDMWRAYSDMREANYIGSDKYFHARGNYDAAKRGPGGAWAAEVITDARENIQRFFGHGAEDSLADQAANEWGRSGKDPNHFRPAGLPEKY
modifications: biotin (Sulfo-NHS-biotin labeling; sites not stated)
notes: serum amyloid A1 (SAA1), human, recombinant, bought from Sigma Aldrich; Same bought protein as m1, biotinylated; detected with streptavidin-HRP; also called biotinylated SAA1; biotin-labeled human SAA1; source: bought: Sigma Aldrich (recombinant), labeled with EZ-Link Micro Sulfo-NHS-Biotinylation Kit
B2: recombinant human serum amyloid A (SAA1) (natural protein, UniProt P0DJI8 19-122, looked up)
chain: B1 chain
notes: serum amyloid A1 (SAA1), human, recombinant, bought from Sigma Aldrich; also called human SAA1; human acute phase protein; source: bought: Sigma Aldrich (recombinant)

Legend:
Conditions in all cases: both partners purified
[1] = target: T3, recombinant Mycobacterium tuberculosis rEspB (Mycobacterium tuberculosis H37Rv, UniProt P9WJD9 1-460); test: far-Western, overlay or dot blot; recombinant Mtb proteins separated by reducing SDS-PAGE (12% gel), transferred to nitrocellulose, incubated 2 h at room temperature with biotin-labeled SAA1 at 10 µg/mL in PBS/0.05% Tween 20/0.1% BSA; streptavidin-peroxidase detection
T3 construct: also called pHis-espB product
T3 sequence (P9WJD9 whole entry): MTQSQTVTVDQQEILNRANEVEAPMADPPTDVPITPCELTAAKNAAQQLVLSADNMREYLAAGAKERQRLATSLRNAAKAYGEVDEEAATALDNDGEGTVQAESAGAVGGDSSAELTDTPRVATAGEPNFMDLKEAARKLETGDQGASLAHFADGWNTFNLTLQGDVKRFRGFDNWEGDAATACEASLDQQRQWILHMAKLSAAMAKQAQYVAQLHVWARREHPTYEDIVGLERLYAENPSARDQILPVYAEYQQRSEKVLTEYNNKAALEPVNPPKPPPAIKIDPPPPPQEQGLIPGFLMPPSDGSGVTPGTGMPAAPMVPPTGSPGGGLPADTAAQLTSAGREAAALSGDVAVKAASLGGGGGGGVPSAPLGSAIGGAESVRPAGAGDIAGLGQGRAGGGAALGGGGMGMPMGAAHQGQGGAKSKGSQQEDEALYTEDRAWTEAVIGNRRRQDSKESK

[2] = target: T1, recombinant Mycobacterium tuberculosis …; test: as above
[3] = target: T4, recombinant Mycobacterium tuberculosis rThiC (Mycobacterium tuberculosis H37Rv, UniProt P9WG79 1-547); test: as above
T4 construct: also called pHis-thiC product
T4 sequence (P9WG79 whole entry): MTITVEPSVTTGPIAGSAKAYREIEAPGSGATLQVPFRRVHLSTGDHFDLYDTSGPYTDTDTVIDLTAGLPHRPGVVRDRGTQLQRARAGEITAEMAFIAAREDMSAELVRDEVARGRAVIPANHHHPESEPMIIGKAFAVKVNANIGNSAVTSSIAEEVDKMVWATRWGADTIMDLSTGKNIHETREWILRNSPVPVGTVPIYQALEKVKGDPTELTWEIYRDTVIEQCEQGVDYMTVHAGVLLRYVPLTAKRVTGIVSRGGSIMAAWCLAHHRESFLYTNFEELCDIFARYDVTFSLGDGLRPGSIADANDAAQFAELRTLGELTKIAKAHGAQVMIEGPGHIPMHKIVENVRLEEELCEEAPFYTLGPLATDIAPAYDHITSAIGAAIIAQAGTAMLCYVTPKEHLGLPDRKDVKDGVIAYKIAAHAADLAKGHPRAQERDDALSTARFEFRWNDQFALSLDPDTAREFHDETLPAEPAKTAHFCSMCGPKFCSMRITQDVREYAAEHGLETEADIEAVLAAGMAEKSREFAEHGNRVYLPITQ

[4] = target: T5, recombinant Mycobacterium tuberculosis rAtpA (Mycobacterium tuberculosis H37Rv, UniProt P9WPU7 1-549); test: as above
T5 construct: also called pHis-atpA product
T5 sequence (P9WPU7 whole entry): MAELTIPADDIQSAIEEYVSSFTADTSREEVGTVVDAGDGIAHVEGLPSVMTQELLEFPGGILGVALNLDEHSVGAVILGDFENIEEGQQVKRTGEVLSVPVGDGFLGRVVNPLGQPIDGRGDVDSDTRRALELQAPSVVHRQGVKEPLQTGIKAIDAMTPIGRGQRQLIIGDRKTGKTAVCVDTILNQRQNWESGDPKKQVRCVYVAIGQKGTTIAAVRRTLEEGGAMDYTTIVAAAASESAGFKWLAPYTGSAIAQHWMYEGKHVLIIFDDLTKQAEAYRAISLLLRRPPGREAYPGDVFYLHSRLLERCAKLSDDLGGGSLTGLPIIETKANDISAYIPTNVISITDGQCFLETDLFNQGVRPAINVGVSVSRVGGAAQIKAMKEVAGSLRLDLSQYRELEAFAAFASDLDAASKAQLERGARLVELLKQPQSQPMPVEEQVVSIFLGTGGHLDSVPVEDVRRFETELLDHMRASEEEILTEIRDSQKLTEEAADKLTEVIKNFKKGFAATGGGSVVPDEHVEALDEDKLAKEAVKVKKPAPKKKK

[5] = target: T2, recombinant Mycobacterium tuberculosis …; test: SPR; Biacore X, CM5 chip; human SAA1 amine-coupled (7850 RU), BSA chip as control and blank; native recombinant Mtb proteins as analytes; 22-25 °C; HBS-EP pH 7.4 (0.01 M HEPES, 0.15 M NaCl, 3 mM EDTA, 0.005% P20); flow 5 or 20 µL/min; global fit, Langmuir 1:1 with drifting baseline
[6] = target: T3, recombinant Mycobacterium tuberculosis …; test: as above
[7] = target: T1, recombinant Mycobacterium tuberculosis …; test: as above
[8] = target: T4, recombinant Mycobacterium tuberculosis …; test: as above
[9] = target: T5, recombinant Mycobacterium tuberculosis …; test: as above

Binder	binding result [1]	binding result [2]	binding result [3]	binding result [4]	Kd [5] [µM]	Kd [6] [µM]	Kd [7] [µM]	Kd [8] [µM]	Kd [9] [µM]
B1	binds	binds	binds	binds	–	–	–	–	–
B2	–	–	–	–	11.3	5.06	8.5	7.53	0.194
